# T1: ENTPD2 (Homo sapiens, UniProt Q9Y5L3)
# T1 sequence (Q9Y5L3 1-495): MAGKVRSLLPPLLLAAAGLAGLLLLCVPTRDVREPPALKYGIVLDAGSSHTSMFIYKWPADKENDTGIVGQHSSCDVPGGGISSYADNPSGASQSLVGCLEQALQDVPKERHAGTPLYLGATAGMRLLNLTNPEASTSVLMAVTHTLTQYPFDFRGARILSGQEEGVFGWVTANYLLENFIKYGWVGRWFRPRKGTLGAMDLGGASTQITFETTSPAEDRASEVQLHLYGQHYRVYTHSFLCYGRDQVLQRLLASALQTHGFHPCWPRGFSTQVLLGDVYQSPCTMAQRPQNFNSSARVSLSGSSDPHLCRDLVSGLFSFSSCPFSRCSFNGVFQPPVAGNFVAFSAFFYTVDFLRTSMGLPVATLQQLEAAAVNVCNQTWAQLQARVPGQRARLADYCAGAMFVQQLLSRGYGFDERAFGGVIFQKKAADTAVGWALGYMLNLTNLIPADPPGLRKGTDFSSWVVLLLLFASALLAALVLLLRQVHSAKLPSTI
# B1: mAb13: anti-mouse ENTPD2 monoclonal antibody; HC SEQ ID NO: 193, LC SEQ ID NO: 204 (antibody)
# heavy: QVQLVQSGAELKQPGQSVKISCKASGYTFTHYGMNWVKQAPGQGLKWMGWINTDTGNPTYADDFKGRFVFSLDTSVSTAYLQISNLKNEDTATYYCVRYGTLYSGYGFFFDSWGQGTLVTVSSAKTTAPSVYPLAPVCGDTTGSSVTLGCLVKGYFPEPVTLTWNSGSLSSGVHTFPAVLQSDLYTLSSSVTVTSSTWPSQSITCNVAHPASSTKVDKKIEPRGPTIKPCPPCKCPAPNLLGGPSVFIFPPKIKDVLMISLSPIVTCVVVDVSEDDPDVQISWFVNNVEVHTAQTQTHREDYNSTLRVVSALPIQHQDWMSGKEFKCKVNNKDLPAPIERTISKPKGSVRAPQVYVLPPPEEEMTKKQVTLTCMVTDFMPEDIYVEWTNNGKTELNYKNTEPVLDSDGSYFMYSKLRVEKKNWVERNSYSCSVVHEGLHNHHTTKSFSRTPGK
# light: DIMMTQSPSSLSVSAGEKATITCKSSQSLFNSNTNKNYLNWYLQKPGQSPKLLFYYASTRHTGVPDRFIGSGSGTDFTLTITSVQDEDLADYYCQQWYSYPWTFGPGTKLEIKRADAAPTVSIFPPSSEQLTSGGASVVCFLNNFYPKDINVKWKIDGSERQNGVLNSWTDQDSKDSTYSMSSTLTLTKDEYERHNSYTCEATHKTSTSPIVKSFNRNEC
# B2: mAb15: anti-mouse ENTPD2 antibody, T30 variant of mAb13; HC SEQ ID NO: 218, LC SEQ ID NO: 204 (antibody)
# heavy: QVQLVQSGAELKQPGQSVKISCKASGYTFHHYGMNWVKQAPGQGLKWMGWINTDTGNPTYADDFKGRFVFSLDTSVSTAYLQISNLKNEDTATYYCVRYGTLYSGYGFFFDSWGQGTLVTVSSAKTTAPSVYPLAPVCGDTTGSSVTLGCLVKGYFPEPVTLTWNSGSLSSGVHTFPAVLQSDLYTLSSSVTVTSSTWPSQSITCNVAHPASSTKVDKKIEPRGPTIKPCPPCKCPAPNLLGGPSVFIFPPKIKDVLMISLSPIVTCVVVDVSEDDPDVQISWFVNNVEVHTAQTQTHREDYNSTLRVVSALPIQHQDWMSGKEFKCKVNNKDLPAPIERTISKPKGSVRAPQVYVLPPPEEEMTKKQVTLTCMVTDFMPEDIYVEWTNNGKTELNYKNTEPVLDSDGSYFMYSKLRVEKKNWVERNSYSCSVVHEGLHNHHTTKSFSRTPGK
# light: DIMMTQSPSSLSVSAGEKATITCKSSQSLFNSNTNKNYLNWYLQKPGQSPKLLFYYASTRHTGVPDRFIGSGSGTDFTLTITSVQDEDLADYYCQQWYSYPWTFGPGTKLEIKRADAAPTVSIFPPSSEQLTSGGASVVCFLNNFYPKDINVKWKIDGSERQNGVLNSWTDQDSKDSTYSMSSTLTLTKDEYERHNSYTCEATHKTSTSPIVKSFNRNEC
# B3: mAb16: hybridoma-derived anti-human ENTPD2 lead inhibitory mAb (chimeric); VH/VL DNA SEQ ID NO: 226/230 (antibody, V domains shown)
# VH: DIQLQESGPGLVKPSQSLSLTCSVTGYSITSGYYWNWIRQFPGNKLEWMGYISYDGDNNYNPSLKNRISITRDTSKNQFFLKLSSVTTEDTATYYCAGGYYRYGLSYYYVMDYWGQGTSVTVSS
# VL: DTVLTQSPASLAVSLGQRATISCKASQSVDYDGNSYMNWYQQKPGQPPKLLIYAASNLESGIPARFSGSGSGTDFTLNIHPVEEEDAATYYCQQSNEDPPTFGGGTKLEIK
# modifications: constant regions not cited
# Experiments:
# B16F10 tumor model = assay: Syngeneic B16F10 tumor model, tumor growth; format: in vivo, C57BL/6 mice; settings: mAb13 15 mg/kg, anti-PD-1 Ab 10 mg/kg i.p., days 1, 5, 8
# Description: B16F10 model was established in female C57BL/6 mice by subcutaneous injection of 0.5×10^6 cells into the right flank of each mouse. On day 7 once tumors reached approximately 30 mm^3, mice were randomized according to tumor volume into treatment groups (n=10 per group). Mice received treatment of either anti-mouse ENTPD2 mAb13 at a final dose 15 mg/kg, anti-PD-1 Ab (clone RMP1-14 Bio X Cell, West Lebanon, N.H.) i.p. at a final dose of 10 mg/kg or the combination of both treatments on days 1, 5, and 8. All doses were adjusted to individual mouse body weights.
# 4T1 clone 45 tumors = assay: 4T1 clone 45 model, flow cytometry of tumor cells and immune infiltrate on day 12; format: in vivo, BALB/c mice
# From the text: In order to understand the impact of anti-ENTPD2 mAb15 alone or in combination with anti-CD73 mAb 350 treatments on the tumor microenvironment, mice were euthanized on day 12 and tumors were dissociated in HyClone RPMI1640 media (GE Healthcare, Pittsburg, Pa.) using gentleMacs C-tubes (Miltenyi Biotec, Auburn, Calif.) on the gentleMacs Octo Dissociator (Miltenyi Biotec, Auburn, Calif.). Approximately 2×10^6 dissociated tumor cells were blocked with rat anti-mouse CD16/CD32 Ab (Biolegend, San Diego, Calif.) to reduce non-specific FcyRIII/II binding and subsequently stained with the cocktails of antibodies from either the myeloid or T cell panel:
# We also stained cells with an anti-ENTPD2 antibody whose binding to ENTP2 is not blocked by anti-ENTPD2 mAb15. All incubations and washed were performed in FACS Buffer composed of 1× Hyclone Phosphate Buffered Saline (GE Healthcare, Pittsburg, Pa.), 1% HyClone Fetal Bovine Serum (GE Healthcare, Pittsburg, Pa.), 2 mM EDTA (ThermoFisher, Waltham Mass.).
# 4T1 clone 45 model = assay: 4T1 clone 45 model, plasma cytokines and Serum Amyloid P 24 hr post treatment; format: in vivo, BALB/c mice; settings: 24 hours after the first treatments
# From the text: In order to investigate the immediate impact of ENTPD2 blockade from an immune pathway engagement/biomarker perspective plasma was collected from BALB/c mice 24 hr after treatment with anti mENTPD2 mAb15 alone or in combination with anti-CD73 mAb 350.
# Mouse ENTPD2-engineered 4T1 clone 45 model was established in female BALB/c mice by subcutaneous injection of 0.5×10^6 cells into the right flank of each mouse. Once tumors reached approximately 100-150 mm^3, mice were randomized according to tumor volume into treatment groups (n=8 per group). Mice received an i.p. treatment of either Anti-mENTPD2 mAb 15 or a non-specific mouse IgG2a isotype control at a final dose of 10 mg/kg on day 0, 2, 5 and 9. Anti-CD73 mAb 350 or a non-specific human IgG4 was dosed i.p. at a final dose of 20 mg/kg on day 0 and 5 (Table 28).
# For the measurement of cytokines and Serum Amyloid P, a marker of inflammation in a mouse, plasma was collected pre-dosing the mice on Day 0 and 24 hours after the first treatments on Day 1.
# Briefly, plasma was isolated via collection of blood into Microvette MV-H-300 Capillary Plasma Lithium Heparin Blood Collection tube (Sai Infusion technologies, Lake Villa, Ill.), that were spun down at 1000-2000 ×g for 10 min. Plasma samples were stored at −80C until use. 10 μL of serum diluted 1:5 was used for cytokine analysis using the MSD Mouse Pro-Inflammatory Panel 1 (MSD, Rockville, Md.) and 5 μL of serum diluted 1:10 MSD Mouse Cytokine Panel 1 (MSD, Rockville, Md.) according to manufacturer's recommendations. To determine the levels of SAP 10 μL of undiluted serum was used for analysis in the SAP Quantikine® ELISA (RnD systems) according to manufacturer's recommendations.
# [1] = tested on: mouse ENTPD2-engineered 4T1 clone 45; assay: Mouse ENTPD2 engineered 4T1 clone 45 syngeneic model, efficacy; format: in vivo, BALB/c mice; settings: Day 12 post treatment; mAb15 10 mg/kg i.p.; mAb 350 20 mg/kg i.p.
# From the text: This model was derived from the 4T1 murine breast cancer model, where mouse ENTPD2 was overexpressed using a retroviral transduction approach. […] Stable mouse ENTPD2 expression (approximately 479,000 receptors) in the model was confirmed in vitro by flow cytometry with the mouse ENTPD2 selective anti mouse ENTPD2 mAb15 (FIG. 27).
# Mouse ENTPD2-engineered 4T1 clone 45 model was established in female BALB/c mice by subcutaneous injection of 0.5×10^6 cells into the right flank of each mouse. Once tumors reached approximately 50-80 mm^3, mice were randomized according to tumor volume into treatment groups (n=10 per group). Mice received an i.p. treatment of either Anti-mENTPD2 mAb15 or a non-specific mouse IgG2a isotype control at a final dose of 10 mg/kg on day 0, 2, 5 and 9. Anti-CD73 mAb 350 or a non-specific human IgG4 was dosed i.p. at a final dose of 20 mg/kg on day 0 and 5.
# ENTPD2 = target: T1, ENTPD2; assay: Cell-based screen of hybridoma-derived mAbs for inhibition of ATP hydrolysis by ENTPD2
# From the text: Hybridoma-derived mAbs were screened in a cell-based assay for inhibition of ATP hydrolysis by ENTPD2.
molecule,measurement,setting,value
B1,anti-tumor efficacy (tumor growth relative to No Treatment),B16F10 tumor model,No significant anti-tumor efficacy
B2,CD4+ central memory cells (CD45+MHCII-CD49−CD4+CD62L+CD44+),4T1 clone 45 tumors; day 12,significant increase
same,activated CD8+ T cells (CD45+MHCII-CD49−CD8+CD25+),4T1 clone 45 tumors; day 12,significant increase
same,cell surface ENTPD2 staining on tumor cells,"4T1 clone 45 tumors; day 12, vs hIgG4 and mIgG2 isotype antibodies",decrease in cell surface ENTPD2 staining
same,SAP (Serum Amyloid P),4T1 clone 45 model,significant increase
same,plasma IP10,4T1 clone 45 model,significant increase
same,plasma MCP1,4T1 clone 45 model,significant increase
same,plasma MIP-2,4T1 clone 45 model,significant increase
same,AT/AC value,[1],76.61
B3,inhibition of ATP hydrolysis by ENTPD2 (screen outcome),ENTPD2,lead inhibitory mAbs

# From patent US20220340685A1, “COMBINATION THERAPY WITH ENTPD2 AND CD73 ANTIBODIES” (Novartis AG, priority 2019, published 2022)
